Results reported in ChEMBL document CHEMBL1123679, “5-Quinone derivatives of 2'-deoxyuridine 5'-phosphate: inhibition and inactivation of thymidylate synthase, antitumor cell, and antiviral studies” (J Med Chem, 1987).

What was measured:
[1] = compound: COc1c(C)c(-c2cn([C@H]3C[C@H](O)[C@@H](COP(=O)(O)O)O3)c(=O)[nH]c2=O)c(OC)c2ccccc12; experiment: (§1) Ability to inhibit the thymidylate synthase from Lactobacillus casei was determined and expressed as inhibition constant(Km); settings: Lacticaseibacillus casei
[2] = compound: O=C1C=CC(=O)C(c2cn([C@H]3C[C@H](O)[C@@H](COP(=O)(O)O)O3)c(=O)[nH]c2=O)=C1; experiment: as §1; settings: Lacticaseibacillus casei
[3] = compound: COc1c(C)c(C)c(OC)c(-c2cn([C@H]3C[C@H](O)[C@@H](COP(=O)(O)O)O3)c(=O)[nH]c2=O)c1C; experiment: as §1; settings: Lacticaseibacillus casei
[4] = substrate: COc1cc(-c2cn([C@H]3C[C@H](O)[C@@H](COP(=O)(O)O)O3)c(=O)[nH]c2=O)c(OC)c(C)c1C; settings: Lacticaseibacillus casei
[5] = substrate: CC1=C(c2cn([C@H]3C[C@H](O)[C@@H](COP(=O)(O)O)O3)c(=O)[nH]c2=O)C(=O)c2ccccc2C1=O; settings: Lacticaseibacillus casei
[6] = substrate: CC1=C(C)C(=O)C(c2cn([C@H]3C[C@H](O)[C@@H](COP(=O)(O)O)O3)c(=O)[nH]c2=O)=CC1=O; settings: Lacticaseibacillus casei
[7] = substrate: CC1=C(C)C(=O)C(c2cn([C@H]3C[C@H](O)[C@@H](COP(=O)(O)O)O3)c(=O)[nH]c2=O)=C(C)C1=O; settings: Lacticaseibacillus casei
[8] = substrate: CC1=C(c2cn([C@H]3C[C@H](O)[C@@H](COP(=O)(O)O)O3)c(=O)[nH]c2=O)C(=O)c2ccccc2C1=O; settings: L1210
[9] = substrate: CC1=C(C)C(=O)C(c2cn([C@H]3C[C@H](O)[C@@H](COP(=O)(O)O)O3)c(=O)[nH]c2=O)=CC1=O; settings: L1210
[10] = substrate: CC1=C(C)C(=O)C(c2cn([C@H]3C[C@H](O)[C@@H](COP(=O)(O)O)O3)c(=O)[nH]c2=O)=C(C)C1=O; settings: L1210

Row | Protein | Km [1] | Km [2] | Km [3] | Km [4] | Km [5] | Km [6] | Km [7] | Km [8] | Km [9] | Km [10]
1 | Thymidylate synthase (Lactobacillus casei), P00469 (protein) MLEQPYLDLAKKVLDEGHFKPDRTHTGTYSIFGHQMRFDLSKGFPLLTTKKVPFGLIKSELLWFLHGDTNIRFLLQHRNHIWDEWAFEKWVKSDEYHGPDMTDFGHRSQKDPEFAAVYHEEMAKFDDRVLHDDAFAAKYGDLGLVYGSQWRAWHTSKGDTIDQLGDVIEQIKTHPYSRRLIVSAWNPEDVPTMALPPCHTLYQFYVNDGKLSLQLYQRSADIFLGVPFNIASYALLTHLVAHECGLEVGEFIHTFGDAHLYVNHLDQIKEQLSRTPRPAPTLQLNPDKHDIFDFDMKDIKLLNYDPYPAIKAPVAV | 5.25 µM | 7.6 µM | 5.25 µM | 5.25 µM | 6.41 µM | 6.98 µM | 6.98 µM |  |  | 
2 | Thymidylate synthase (Mus musculus), P07607 (protein) MLVVGSELQSDAQQLSAEAPRHGELQYLRQVEHILRCGFKKEDRTGTGTLSVFGMQARYSLRDEFPLLTTKRVFWKGVLEELLWFIKGSTNAKELSSKGVRIWDANGSRDFLDSLGFSARQEGDLGPVYGFQWRHFGAEYKDMDSDYSGQGVDQLQKVIDTIKTNPDDRRIIMCAWNPKDLPLMALPPCHALCQFYVVNGELSCQLYQRSGDMGLGVPFNIASYALLTYMIAHITGLQPGDFVHTLGDAHIYLNHIEPLKIQLQREPRPFPKLKILRKVETIDDFKVEDFQIEGYNPHPTIKMEMAV |  |  |  |  |  |  |  | 0.6 µM | 2.46 µM | 0.57 µM
